± gives the standard deviation of the averaged measurements.

The series concerns ATP. The series is described as follows: switch fluorescence ratio, 500 uM ATP over buffer (Cy3 cluster intensity, sum of 5 cycles each) (fold (ratio)); higher = stronger signal-on switching upon ATP binding; sequences stand for … in TCGTCGGCAGCGTCAGATGTGTATAAGAGACAGTTTTTTTTTTTTTTTTTTTTTTTTT…TC. To be noted: aptamer strand: ATP DNA aptamer (quencher-CACCTGGGGGAGTATTGCGGAGGAAGG + anchor), 100 nM annealed; ATP concentration: 500 uM. The method, boiled down: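 Per cluster, summed Cy3 intensity from the target cycles was divided by that from the buffer cycles to give the fluorescence ratio, then averaged per switch-domain sequence. Clusters outside 100-1000 RFU were excluded. The Cy3-labelled switching-strand clusters, on a modified Illumina MiSeq flow-cell, were annealed to 100 nM quencher-labelled ATP aptamer and imaged in selection buffer, then after 15 min with 500 uM ATP at 22 °C, for five cycles with NaOH stripping and re-annealing between them.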
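Also: ATP exposure 15 min at 22 °C before imaging.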

Consider GGATTTCTTA, for which the switch fluorescence ratio worked out at 1 ± 0.025. Consider TTGACACTCG, for which the switch fluorescence ratio turned out to be 0.98 ± 0.021. With AGTTGCCGCG, the switch fluorescence ratio was 0.996 ± 0.012. As for TCGCTTTTTT, the switch fluorescence ratio stood at 1.03 ± 0.068. On to CATTCTCAAT, for which the switch fluorescence ratio is 1.17 ± 0.056. For AAATTAGGAT, the switch fluorescence ratio came to 0.997 ± 0.039. AAGAATTTTG: the switch fluorescence ratio was found to be 0.999 ± 0.027. Turning to CAGGAAAGCA, the switch fluorescence ratio amounted to 0.994 ± 0.031.

Take GATAATGGTT: the switch fluorescence ratio came out at 0.964 ± 0.011. Take TAGTAGGGTG: the switch fluorescence ratio stood at 1.03 ± 0.036. Take TTGCAAAACT: the switch fluorescence ratio amounted to 1.32 ± 0.51. Regarding ACGTCGCCGG, the switch fluorescence ratio was 0.987 ± 0.038. GAAAAGATTA: the switch fluorescence ratio worked out at 0.997 ± 0.028. As for TAGGGTTGGC, the switch fluorescence ratio was determined as 0.969 ± 0.013. Take CCGGTTTGGG: the switch fluorescence ratio came out at 0.988 ± 0.042. For TAGTTTTCAT the value was 1.021 ± 0.01. In the case of AAGAAAAATT, the switch fluorescence ratio is 0.9725 ± 0.0048. Regarding AAAGAGACGC, the switch fluorescence ratio came out at 1.03 ± 0.068. GGGTGGGAAT: the switch fluorescence ratio stood at 1.01 ± 0.043.

As to ACATATGGGC, the switch fluorescence ratio came out at 0.974 ± 0.037. For TTGGTACGGG the value was 1.01 ± 0.047. The same measure for AAGGCCGCGG: 0.997 ± 0.05; for ACAACGAGGT: 1.015 ± 0.0093. In the case of GGCTTTGGCG, the switch fluorescence ratio turned out to be 1.01 ± 0.015. In the case of TTGATTCATT, the switch fluorescence ratio is 1.01 ± 0.025. For the sequence TGTAACGGGA, the switch fluorescence ratio was 1.01 ± 0.018. As to ATCGGAAACT, the switch fluorescence ratio is 1.03 ± 0.039. The same measure for CGCAAATCAA: 1.38 ± 0.073.

For the sequence CGGAGGAAGG, the switch fluorescence ratio is 1.044 ± 0.0072. As to ATTATGGCGC, the switch fluorescence ratio amounted to 0.967 ± 0.0049. With AGCGGGGCGG, the switch fluorescence ratio stood at 1.02 ± 0.017. GGTTAACGTC: the switch fluorescence ratio stood at 1.03 ± 0.15. The same measure for AGTTATTATT: 0.963 ± 0.0055; for CCAGGGGCGG: 1.067 ± 0.002. Consider GAAATCAGGT, for which the switch fluorescence ratio was found to be 1.02 ± 0.019. The same measure for TAAAAAATAC: 1.67 ± 0.74; for TAGGGTTCAA: 0.989 ± 0.02; for CGATGAATTC: 1.07 ± 0.048.

For the sequence CAAACGGGGG, the switch fluorescence ratio came to 0.983 ± 0.042. For TCATAATTGA the value was 0.99 ± 0.012. For TTGGAGGTGG the value was 0.959 ± 0.031; for GGGATATCGA, 0.975 ± 0.021. Consider GACAGAAGTG, for which the switch fluorescence ratio came out at 1.02 ± 0.019. Consider CGTCTAGACT, for which the switch fluorescence ratio turned out to be 1.018 ± 0.0036. On to TGCTGCTAGC, for which the switch fluorescence ratio is 0.985 ± 0.036. With TTTCATTTTA, the switch fluorescence ratio worked out at 0.9881 ± 0.0064. On to TCGTTTGAGT, for which the switch fluorescence ratio came to 0.997 ± 0.021.

Regarding GAGTGACGGA, the switch fluorescence ratio was found to be 1 ± 0.054. For GCTAAATCGG the value was 1.027 ± 0.0082. Regarding GTTGGAGGTG, the switch fluorescence ratio stood at 1.06 ± 0.012. For the sequence TGAGATTGC, the switch fluorescence ratio turned out to be 1.03 ± 0.053. CAGCGGGGGA: the switch fluorescence ratio was 1.012 ± 0.0014. With TCATAAATTT, the switch fluorescence ratio worked out at 1.01 ± 0.018. Turning to AGGAAAAACT, the switch fluorescence ratio amounted to 1.02 ± 0.047. The same measure for TTTCACCCCT: 1.09 ± 0.067.

ACGAGGTTGG: the switch fluorescence ratio worked out at 1.04 ± 0.084. As to GGGGGTTTAG, the switch fluorescence ratio is 1 ± 0.028. On to CATAAAGATG, for which the switch fluorescence ratio is 1.053 ± 0.01. As to GTAAAATAGA, the switch fluorescence ratio was found to be 1.01 ± 0.034.

Regarding CGGTTTTATA, the switch fluorescence ratio came out at 0.9619 ± 0.0088.

In the case of AGGTGGGCAG, the switch fluorescence ratio is 0.984 ± 0.018.

Turning to GTTCATTGTT, the switch fluorescence ratio turned out to be 0.941 ± 0.017. Turning to GCAAAAAGGC, the switch fluorescence ratio was 1.03 ± 0.015.

Turning to CAGGCAGGTC, the switch fluorescence ratio worked out at 0.997 ± 0.024. As to CAAAGGGGGA, the switch fluorescence ratio came out at 1 ± 0.033.

Consider CGCCTGGCCG, for which the switch fluorescence ratio was 0.9439 ± 0.0079. As to TGTGTCTACA, the switch fluorescence ratio was 1 ± 0.024. As for GCTATAGACT, the switch fluorescence ratio is 1.02 ± 0.067. For the sequence AGGTACAGGG, the switch fluorescence ratio is 1.01 ± 0.041.

GGTTGCATTA: the switch fluorescence ratio worked out at 0.9923 ± 0.0019. As to GCTGATGACT, the switch fluorescence ratio amounted to 0.9918 ± 0.0063. On to TTTTCGGGTA, for which the switch fluorescence ratio came out at 1.02 ± 0.0091.

As for ATGTCTGGGC, the switch fluorescence ratio was 0.977 ± 0.014. Turning to TGAAGAAGTG, the switch fluorescence ratio amounted to 0.994 ± 0.022. With GTGTTAGGGA, the switch fluorescence ratio came out at 1.01 ± 0.015. On to TCATCTGCTG, for which the switch fluorescence ratio was 1.17 ± 0.087. As to TAGATAGGGA, the switch fluorescence ratio was 1.01 ± 0.024. On to CTTCTGAGGT, for which the switch fluorescence ratio was found to be 1.74 ± 0.95.

Consider AAAGGGCCAG, for which the switch fluorescence ratio is 1.02 ± 0.02. In the case of TTTGTAAAGA, the switch fluorescence ratio amounted to 1 ± 0.018. On to CGGGTGTAGT, for which the switch fluorescence ratio was 1.03 ± 0.024. As for ATGGGCATC, the switch fluorescence ratio came to 0.9882 ± 0.0058. Turning to CCAGCCTTTT, the switch fluorescence ratio turned out to be 1.025 ± 0.0039. As to GGCCGTTCAT, the switch fluorescence ratio worked out at 0.972 ± 0.011.

As for AACTAGGATA, the switch fluorescence ratio was determined as 1.01 ± 0.02. For the sequence ACGTTAAGCG, the switch fluorescence ratio amounted to 1.01 ± 0.035. Regarding TTTGGACGGG, the switch fluorescence ratio stood at 0.995 ± 0.033.

As for AAAACCTCAC, the switch fluorescence ratio amounted to 1.56 ± 0.13. Take TAGGGGGGAG: the switch fluorescence ratio turned out to be 0.981 ± 0.024. GCATTAAGAA: the switch fluorescence ratio is 1.01 ± 0.018. For ATCGGACTTG the value was 0.977 ± 0.033; for AATGAGACAG, 1 ± 0.02.

With GAGGTGCAGG, the switch fluorescence ratio came out at 0.9932 ± 0.008. Regarding CGGATTGTGT, the switch fluorescence ratio came out at 1.018 ± 0.0055. Take CTGGGGCGCT: the switch fluorescence ratio came out at 1.028 ± 0.0032. As for GCCAGGGCTG, the switch fluorescence ratio was found to be 1 ± 0.024.

As for CTCGCAGGGG, the switch fluorescence ratio was determined as 1.37 ± 0.2.

On to CCACGAAGAT, for which the switch fluorescence ratio worked out at 1.061 ± 0.0037. With CGGATTTAGA, the switch fluorescence ratio is 0.987 ± 0.043. For the sequence GATGCAGTAT, the switch fluorescence ratio is 1.12 ± 0.044. For GGTTTCCCTG the value was 0.9984 ± 0.0033; for ACATAGCTTT, 1.03 ± 0.036. The same measure for CTTGTCATCG: 0.993 ± 0.037; for CGGCTTAAGT: 1.01 ± 0.035; for GGTGCCGGTT: 0.997 ± 0.054. For CGTTGCGCCA the value was 1.02 ± 0.013; for TGCGTGGCGG, 1.02 ± 0.037; for ACAGTTCGGG, 0.9653 ± 0.0051. Take CATCGGTCTT: the switch fluorescence ratio came to 0.958 ± 0.039. Turning to GGAGAGGGGT, the switch fluorescence ratio was 0.99 ± 0.035. Turning to GGGCCGATCA, the switch fluorescence ratio came to 0.997 ± 0.036. Regarding ATGTTGTCTC, the switch fluorescence ratio was found to be 1.001 ± 0.0079. GACGGCTGGT: the switch fluorescence ratio stood at 1.01 ± 0.021. On to TTAGGTATCT, for which the switch fluorescence ratio amounted to 1.01 ± 0.0095.

In the case of GGCAGAGTGT, the switch fluorescence ratio came to 1 ± 0.063. For CTTACCTGAG, the switch fluorescence ratio was 1.31 ± 0.045. The same measure for GAAGCCGGGC: 1.04 ± 0.022; for ATTAGGGTTG: 0.9823 ± 0.0019. On to TGTGAGGTTC, for which the switch fluorescence ratio came out at 0.9675 ± 0.0075. For TTCAGGGGTC, the switch fluorescence ratio came to 1.02 ± 0.018.

The values above are taken from the supplement of paper PMC10126150.
